Test in all cases: SPR (Biacore)
Test [1] has as its target T1, human C5 (purified human complement C5, Complement Technology #A120; also C5 in normal human serum) (human, UniProt P01031 19-673; P01031 678-1676).
Test [2] concerns the target T1, human C5 (purified human complement C5, …). This is another data set of the same source.
Test [3] has the same target. The source holds these as a separate data set.
The target is the same in test [4]. This is another data set of the same source.
Test [5] shares this target. This is another data set of the same source.

Read-outs that look alike come from different tables or passages of the source.

T1 sequence (P01031 19-673, chain 1 of 2): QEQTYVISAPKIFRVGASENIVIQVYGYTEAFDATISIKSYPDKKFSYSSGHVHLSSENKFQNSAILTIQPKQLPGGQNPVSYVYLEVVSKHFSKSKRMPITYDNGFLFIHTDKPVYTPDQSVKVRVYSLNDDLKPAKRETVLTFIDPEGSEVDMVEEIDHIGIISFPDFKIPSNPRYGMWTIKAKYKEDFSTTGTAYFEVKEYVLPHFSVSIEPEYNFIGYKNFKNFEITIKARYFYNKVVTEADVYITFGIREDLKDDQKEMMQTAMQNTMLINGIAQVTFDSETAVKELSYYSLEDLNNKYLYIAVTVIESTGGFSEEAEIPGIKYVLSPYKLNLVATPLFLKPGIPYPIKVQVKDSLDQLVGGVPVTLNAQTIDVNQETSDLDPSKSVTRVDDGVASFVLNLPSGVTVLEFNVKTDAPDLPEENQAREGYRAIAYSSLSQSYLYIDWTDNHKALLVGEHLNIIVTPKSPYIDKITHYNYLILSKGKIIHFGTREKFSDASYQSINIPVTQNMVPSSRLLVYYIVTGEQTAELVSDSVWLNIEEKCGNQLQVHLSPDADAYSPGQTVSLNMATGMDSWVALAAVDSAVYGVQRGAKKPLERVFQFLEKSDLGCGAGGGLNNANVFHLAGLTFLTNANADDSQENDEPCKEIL
T1 sequence (P01031 678-1676, chain 2 of 2): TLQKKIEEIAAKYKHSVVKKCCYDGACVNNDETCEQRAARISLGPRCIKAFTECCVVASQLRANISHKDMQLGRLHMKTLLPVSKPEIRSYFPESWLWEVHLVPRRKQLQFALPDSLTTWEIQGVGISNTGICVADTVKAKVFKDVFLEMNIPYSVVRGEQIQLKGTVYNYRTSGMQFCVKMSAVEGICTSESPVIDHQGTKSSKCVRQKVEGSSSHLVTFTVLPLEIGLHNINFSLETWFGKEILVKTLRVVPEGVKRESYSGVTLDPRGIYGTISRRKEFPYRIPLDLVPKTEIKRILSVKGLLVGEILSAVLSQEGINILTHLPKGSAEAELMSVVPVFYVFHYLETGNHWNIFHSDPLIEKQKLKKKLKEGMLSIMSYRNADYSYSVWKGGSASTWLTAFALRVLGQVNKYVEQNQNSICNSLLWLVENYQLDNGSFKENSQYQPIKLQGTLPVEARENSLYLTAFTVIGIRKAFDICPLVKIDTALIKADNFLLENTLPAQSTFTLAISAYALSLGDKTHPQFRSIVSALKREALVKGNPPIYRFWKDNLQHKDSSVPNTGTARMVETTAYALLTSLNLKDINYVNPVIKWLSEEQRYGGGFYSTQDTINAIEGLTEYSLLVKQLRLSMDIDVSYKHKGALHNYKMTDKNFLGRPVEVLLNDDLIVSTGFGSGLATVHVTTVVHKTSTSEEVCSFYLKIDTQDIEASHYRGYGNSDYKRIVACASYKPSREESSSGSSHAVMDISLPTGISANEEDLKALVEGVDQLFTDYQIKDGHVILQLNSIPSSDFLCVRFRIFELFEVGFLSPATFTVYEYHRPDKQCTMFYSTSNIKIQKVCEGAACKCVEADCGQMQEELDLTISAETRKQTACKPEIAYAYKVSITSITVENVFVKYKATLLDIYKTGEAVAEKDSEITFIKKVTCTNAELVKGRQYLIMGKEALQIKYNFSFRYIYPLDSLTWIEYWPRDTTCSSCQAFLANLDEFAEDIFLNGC

B1: anti-human C5 mAb 11D9 (antibody, V domains shown)
VH: EVQLQQSGPEVVKPGASVKISCKASGYTFTDFYMNWVKQSHGKSLEWIGYINPNNGDTSYNQKFKGKATSTVDRSSNTAYMELRSLTSEDSAVYYCARLIFYGNWYFDVWGTGTTVTVSS
VL: EIVLTQSPPTMAASPGEKITITCSASSSISSNYVHWYQQKPGFSPKLLIYRTSNLASGVPVRFSGSGSGTSYSLTIGTMEAEDVATYYCQQGTSIPWTFGGGTKVEINR
For the molecule B1, in test [1], the Kd came out at 2.2 nM.

B2: anti-human C5 mAb 11C5 (antibody, V domains shown)
VH: EVQLVESGGGLVKPGGSLKLSCAASGFTFTTYAMSWVRQTPEKRLEWVATISAGGTYTYYSDNVKGRFTISRDNAKNNLYLQMSHLKSEDTAMFYCARDPDYYGRSPFAYWGQGTLVTVSA
VL: EIVLTQSPATLSVTPGESVSLSCRASQSISNNLQWYQQKSHESPRLLIKYASQSISGIPSRFSGSGSGTDFTLSINSVETEDFGMYFCQQSNSWPLTFGGGTKVELKR
Take B2: binding in test [2] was characterised by a dissociation constant (Kd) of 12.5 nM.

B3: anti-human C5 mAb 2G1 (antibody, V domains shown)
VH: EVQLQQSGPELVKPGASVKISCKASGYTITDYNLDWVKQSHGKSLEWIGDISPNYGYTIYNQKFKDKATLTVDRSSSTAYMELRSLTSEDTAVYYCARRDIRYSGNSYKWYFDVWGTGTTVTVSS
VL: DVQITQSPSYLAASPGETITINCRTSKSISKYLAWYQEKPGKTNKLLIYSGSTLQSGIPSRFRGSGSGTDFTLTISSLEPEDFAMYYCQQHNEYPYTFGGGTKLEIK
The molecule B3 showed a Kd in test [3] of 0.845 nM.

B4: anti-human C5 mAb 8E1 (antibody, V domains shown)
VH: QVQLKESGPGLVAPSQSLSITCTVSGFPLNNYGIHWVRQPPGKGLEWLAVIWSDGRTTYNSALNSRLSISKDNSKSQVFFKMNSLQTDDTAMYYCARHDGRGDYSMDYWGQGTSVTVSS
VL: ELVMTQSPASLVVSLGQRATISCRASKGVSTSVYSYMHWYQQKPGQPPKLLIYLASNLESGVPARFSGSGSGTDFSLNIHPVEEEDAATYYCQQSGELPLTFGAGTKLELKR
Molecule B4 yielded a Kd in test [4] of 0.427 nM.

B5: anti-human C5 mAb 9G6 (antibody, V domains shown)
VH: QIQLVQSGPELKKPGETVKISCKASGYTFTEYPMHWVKQAPGKSFKWMGILYTDTGEPTYAEEFRGRFAFSLETSASTAYLQINNLKNEDTATYFCVHSGYVGYWGQGTTLTVSS
VL: DIQMTQSPASLSASVGETVTFTCRASEIIYSYLVWYQQKQGKSPQLLVSNAKTLAEGVPSRFSGSGSGTQFSLKINSLQPEDFGSYYCQHYYGNPPTFGGGTKLEIKR
On to B5, for which, in test [5], binding was put at a Kd of 2.2 nM. This counts as single-digit nanomolar.

By Kd is commonly meant the free concentration of one partner at which half of the binding sites on the other are occupied at equilibrium, for simple one-to-one binding. Higher therefore signals lower affinity.

These data come from US20230227571A1 (published 2023).
